Source: US20230038878A1 (EVER SUPREME BIO TECHNOLOGY, published 2023)

How the values were obtained:
[1] = target: HLA-G recombinant protein (Origene, CAT #: TP305216) (human) (UniProt P17693); assay: competitive ELISA on HLA-G recombinant protein; blocked ligand: biotinylated LILRB1
[2] = target: HLA-G recombinant protein (Origene, CAT #: TP305216) (human) (UniProt P17693); assay: competitive ELISA; competitor biotinylated LILRB1 on HLA-G recombinant protein
[3] = target: HLA-G recombinant protein (Origene, CAT #: TP305216) (human) (UniProt P17693); assay: competitive ELISA on HLA-G recombinant protein; blocked ligand: biotinylated KIR2DL4
[4] = target: HLA-G recombinant protein (Origene, CAT #: TP305216) (human) (UniProt P17693); assay: competitive ELISA; competitor biotinylated KIR2DL4 on HLA-G recombinant protein
[5] = target: T1, PD-L1 on PD-L1 aAPC/CHO-K1 cells (PD-1/PD-L1 Blockade Bioassay Kit, Promega) (UniProt Q9NZQ7 19-290, limits assumed); assay: cell-based or functional assay
[6] = target: T2, PD-L1 recombinant protein (Sino Biological, CAT #: 10084-H05H) (UniProt Q9NZQ7 19-239); assay: SPR
T2 construct: Bought protein; also called programmed death-ligand 1
Protocol: The kinetic analysis of the PD-L1 nanobodies of the present disclosure and the binding affinity analysis of the PD-L1 recombinant protein (Sino Biological, CAT #: 10084-H05H) are performed by SPR analysis.

[7] = target: T1, PD-L1 on PD-L1 aAPC/CHO-K1 cells …; assay: cell-based or functional assay; remark: listed apart in the source

T2 sequence (Q9NZQ7 19-239 limits assumed): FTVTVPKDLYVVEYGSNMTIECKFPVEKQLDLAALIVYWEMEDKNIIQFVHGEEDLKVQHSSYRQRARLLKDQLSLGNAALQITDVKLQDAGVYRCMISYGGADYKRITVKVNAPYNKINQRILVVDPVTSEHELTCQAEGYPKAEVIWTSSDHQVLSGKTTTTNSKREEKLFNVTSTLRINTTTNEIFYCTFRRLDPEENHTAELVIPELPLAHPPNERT
T1 sequence (Q9NZQ7 19-290 limits assumed): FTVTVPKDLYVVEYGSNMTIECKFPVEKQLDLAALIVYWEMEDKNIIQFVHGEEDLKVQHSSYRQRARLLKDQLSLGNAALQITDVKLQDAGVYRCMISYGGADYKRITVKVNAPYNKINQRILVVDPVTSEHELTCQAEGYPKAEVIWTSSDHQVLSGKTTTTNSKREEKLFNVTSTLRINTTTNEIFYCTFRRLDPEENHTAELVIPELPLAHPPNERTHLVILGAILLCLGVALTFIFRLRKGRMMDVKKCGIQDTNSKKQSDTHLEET

| IC50 (read off the curve) [1] [nM] | IC50 [2] [nM] | IC50 (read off the curve) [3] [nM] | IC50 [4] [nM] | IC50 for the PD-1 blocking activity (PD-1/PD-L1 Blockade Bioassay, luminescence) [5] [nM] | Kd [6] [nM] | koff [6] [s⁻¹] | kon [6] [M⁻¹ s⁻¹] | IC50 (read off the curve); PD-1/PD-L1 Blockade Bioassay (Promega), bioluminescence (RLU), which rises with the concentration [7] [nM] | Molecule |
| --- | --- | --- | --- | --- | --- | --- | --- | --- | --- |
| 7000 | > 1000 | 100 | 104 |  |  |  |  |  | HLA-G monoclonal antibody (87G, ThermoFisher) |
|  |  |  |  | ~0.48 | 0.91 | 0.000936 | 1.03e+06 |  | PD-L1 Nb #15 (VHH, Prepared as a free nanobody; also called PD-L1 nanobody) VHH: HVQLVESGGGLVQPGGSLRLSCAASGFTFSSKAMSWVRQAPGKGLDWVSTINSGGGNTYYSDSVKGRFTISRDNAKNTLYLQLNSLKTEDTAMYYCSRCSDIYCGGQYTYRGQGTLVTVSS |
|  |  |  |  | ~37.7 | 0.86 | 0.00521 | 6.04e+06 | ~20 | PD-L1 Nb #3 (VHH, Prepared as a free nanobody; also called PD-L1 nanobody) VHH: EVQLVESGGGLVQPGGSLRLSCVASGFTFSSIGMSWVRQAPGKGLEWVSGLNPVGSHTGYADSVKGRFTISRDNAKNTLHLQLNSLKTEDTAMYYCQRGYTCSGDLCERGQGTQVTVSS |
